This data set deals with T1, LbuCas13a R377A (Leptotrichia buccalis, UniProt C7NBY4 SEQ:1-1159).
T1 chain: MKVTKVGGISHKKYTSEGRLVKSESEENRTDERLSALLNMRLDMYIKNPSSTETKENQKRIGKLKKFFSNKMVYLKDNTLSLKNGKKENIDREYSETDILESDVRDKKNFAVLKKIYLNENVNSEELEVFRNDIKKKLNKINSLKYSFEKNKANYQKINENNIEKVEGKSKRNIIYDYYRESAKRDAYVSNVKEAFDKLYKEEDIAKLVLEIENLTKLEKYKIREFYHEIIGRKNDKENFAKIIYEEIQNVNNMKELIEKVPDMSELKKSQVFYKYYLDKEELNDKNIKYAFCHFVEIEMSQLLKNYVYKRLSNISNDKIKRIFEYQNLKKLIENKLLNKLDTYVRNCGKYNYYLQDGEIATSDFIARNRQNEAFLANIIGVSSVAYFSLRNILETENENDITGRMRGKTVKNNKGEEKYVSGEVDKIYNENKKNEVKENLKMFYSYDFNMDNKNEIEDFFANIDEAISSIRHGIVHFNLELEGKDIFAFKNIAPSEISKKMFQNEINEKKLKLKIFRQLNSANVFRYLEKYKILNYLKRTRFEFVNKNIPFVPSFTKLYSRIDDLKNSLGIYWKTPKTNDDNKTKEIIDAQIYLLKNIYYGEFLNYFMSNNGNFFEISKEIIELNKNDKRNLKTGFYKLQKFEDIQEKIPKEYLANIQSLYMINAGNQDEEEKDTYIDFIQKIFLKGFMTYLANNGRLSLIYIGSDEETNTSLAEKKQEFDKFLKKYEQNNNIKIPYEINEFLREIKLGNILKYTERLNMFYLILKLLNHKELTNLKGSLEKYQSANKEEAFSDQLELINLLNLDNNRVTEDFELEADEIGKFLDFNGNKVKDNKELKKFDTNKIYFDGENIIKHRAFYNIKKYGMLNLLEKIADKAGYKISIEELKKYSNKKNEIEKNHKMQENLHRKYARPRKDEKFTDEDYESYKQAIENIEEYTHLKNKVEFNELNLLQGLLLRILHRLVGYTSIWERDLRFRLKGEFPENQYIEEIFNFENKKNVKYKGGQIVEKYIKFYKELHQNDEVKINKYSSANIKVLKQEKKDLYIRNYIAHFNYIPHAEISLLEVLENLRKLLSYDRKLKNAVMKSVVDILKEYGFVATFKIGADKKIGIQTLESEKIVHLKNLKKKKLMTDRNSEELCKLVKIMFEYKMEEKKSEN
Put plainly: cleavage_in_vitro; 10 nM; decreased about 50% vs WT; inactive at 100 pM. Conditions: tags: His6-MBP-TEV (cleaved); hairpin in direct repeat.

B1: del crRNA 20 nt spacer ; perfect match target RNA (ssRNA ; ssRNA)
RNA 1: GGCCACCCCAAAAAUGAAGGGGACUAAAACACAAAUCUAUCUGAAUAAAC
RNA 2: GGGAAACCAAGAAGAAGAGUUUAUUCAGAUAGAUUUGUCACAGCAGAAGCCCACAC
For the molecule B1, the activity was ~50 % of WT.

(Values after US20250368975, “COMPOSITIONS, METHODS AND SYSTEMS FOR HIGH-FIDELITY CAS13A VARIANTS WITH IMPROVED SPECIFICITY” (University of Rochester, published 2025).)
